Results from US20200085917A1.

Key:
Test in all cases: GST pull-down, LC-MS/MS
[1] = biological target: Tuba4a_IPI:IPI00117350.1 (mouse) (UniProt P68368)
[2] = biological target: Slc25a1_IPI:IPI00276926.3 (mouse) (UniProt Q8JZU2)
[3] = biological target: T1, Gbas_IPI:IPI00115827.1 (mouse) (UniProt O55126)
T1 sequence (looked up): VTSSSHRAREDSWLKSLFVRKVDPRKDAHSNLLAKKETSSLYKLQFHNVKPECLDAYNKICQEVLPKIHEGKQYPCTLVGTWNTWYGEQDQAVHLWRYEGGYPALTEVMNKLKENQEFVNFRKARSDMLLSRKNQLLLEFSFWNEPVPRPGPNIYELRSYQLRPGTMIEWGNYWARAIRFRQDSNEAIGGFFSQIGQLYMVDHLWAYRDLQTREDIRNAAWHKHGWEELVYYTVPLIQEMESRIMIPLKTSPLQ

[4] = biological target: Timm17b_IPI:IPI00129504.1 (mouse) (UniProt Q9Z0V7)
[5] = biological target: T2, Pfn2_IPI:IPI00227805.6 (mouse) (UniProt Q9JJV2)
T2 sequence (looked up): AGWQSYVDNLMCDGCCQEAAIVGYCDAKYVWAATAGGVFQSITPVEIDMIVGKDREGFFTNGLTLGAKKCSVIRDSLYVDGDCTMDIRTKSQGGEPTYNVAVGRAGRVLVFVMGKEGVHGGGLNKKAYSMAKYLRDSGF

[6] = biological target: T3, C1qbp_IPI:IPI00132799.4 (mouse) (UniProt O35658)
T3 sequence (looked up): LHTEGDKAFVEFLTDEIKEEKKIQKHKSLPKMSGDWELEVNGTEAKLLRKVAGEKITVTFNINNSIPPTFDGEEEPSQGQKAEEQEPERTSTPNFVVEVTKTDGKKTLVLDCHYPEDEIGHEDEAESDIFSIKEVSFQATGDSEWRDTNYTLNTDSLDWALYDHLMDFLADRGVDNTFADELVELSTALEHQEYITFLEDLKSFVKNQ

[7] = biological target: Vsnl1_IPI:IPI00230418.5 (mouse) (UniProt P62761)
[8] = biological target: Hspa9_IPI:IPI00880839.1 (mouse) (UniProt P38647)
[9] = biological target: T4, Hmgcl_IPI:IPI00127625.1 (mouse) (UniProt P38060)
T4 sequence (looked up): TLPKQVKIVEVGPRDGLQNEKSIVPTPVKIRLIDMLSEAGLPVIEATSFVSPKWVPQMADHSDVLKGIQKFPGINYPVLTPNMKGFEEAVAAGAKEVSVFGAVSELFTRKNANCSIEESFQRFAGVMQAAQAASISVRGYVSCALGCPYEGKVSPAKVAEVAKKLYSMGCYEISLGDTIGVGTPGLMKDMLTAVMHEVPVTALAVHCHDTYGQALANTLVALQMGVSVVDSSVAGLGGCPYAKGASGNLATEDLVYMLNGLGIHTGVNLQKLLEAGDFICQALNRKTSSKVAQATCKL

[10] = biological target: T5, Ccdc127_IPI:IPI00131843.3 (mouse) (UniProt Q3TC33)
T5 sequence (looked up): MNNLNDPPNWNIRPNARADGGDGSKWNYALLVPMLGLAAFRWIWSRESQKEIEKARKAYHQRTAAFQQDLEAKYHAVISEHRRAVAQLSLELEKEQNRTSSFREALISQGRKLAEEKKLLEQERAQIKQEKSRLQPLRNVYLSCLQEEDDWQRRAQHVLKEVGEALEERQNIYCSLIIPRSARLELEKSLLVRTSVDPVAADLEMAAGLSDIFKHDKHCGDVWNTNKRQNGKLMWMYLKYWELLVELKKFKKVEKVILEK

[11] = biological target: Atp1a3_IPI:IPI00122048.2 (mouse) (UniProt Q6PIC6)
[12] = biological target: Loh12cr1_IPI:IPI00457620.2 (mouse)
[13] = biological target: Ndufb5_IPI:IPI00132531.1 (mouse) (UniProt Q9CQH3)
[14] = biological target: mt-Co2_IPI:IPI00131176.1 (mouse) (UniProt P00405)
[15] = biological target: T6, Acsl6_IPI:IPI00123390.8 (mouse) (UniProt Q91WC3)
T6 sequence (looked up): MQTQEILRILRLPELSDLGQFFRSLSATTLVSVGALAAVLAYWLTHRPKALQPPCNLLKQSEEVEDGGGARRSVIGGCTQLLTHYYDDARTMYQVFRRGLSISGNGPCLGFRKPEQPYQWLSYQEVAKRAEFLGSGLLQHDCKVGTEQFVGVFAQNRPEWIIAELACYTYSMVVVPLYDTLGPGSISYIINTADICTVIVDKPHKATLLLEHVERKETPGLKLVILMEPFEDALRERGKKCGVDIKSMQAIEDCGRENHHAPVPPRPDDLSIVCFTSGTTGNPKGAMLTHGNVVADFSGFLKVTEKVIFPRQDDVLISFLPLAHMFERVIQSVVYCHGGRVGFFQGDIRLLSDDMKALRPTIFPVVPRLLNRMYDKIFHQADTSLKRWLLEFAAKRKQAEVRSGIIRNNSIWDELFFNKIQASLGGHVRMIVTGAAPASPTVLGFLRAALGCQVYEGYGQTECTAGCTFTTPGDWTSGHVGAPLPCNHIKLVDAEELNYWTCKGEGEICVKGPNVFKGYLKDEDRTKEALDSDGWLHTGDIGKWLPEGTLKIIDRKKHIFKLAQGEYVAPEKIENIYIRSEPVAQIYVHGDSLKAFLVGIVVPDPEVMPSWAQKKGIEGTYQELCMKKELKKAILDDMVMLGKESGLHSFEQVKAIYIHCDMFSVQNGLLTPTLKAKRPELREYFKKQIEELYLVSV

Sequence of Vsnl1_IPI:IPI00230418.5 (mouse) (P62761 2-191 limits assumed): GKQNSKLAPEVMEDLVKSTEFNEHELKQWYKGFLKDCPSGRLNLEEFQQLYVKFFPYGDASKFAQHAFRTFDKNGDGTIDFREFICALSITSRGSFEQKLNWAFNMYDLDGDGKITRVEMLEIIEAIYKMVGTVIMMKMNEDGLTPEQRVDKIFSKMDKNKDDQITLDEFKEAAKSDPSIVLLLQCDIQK
Sequence of mt-Co2_IPI:IPI00131176.1 (mouse) (P00405 whole entry): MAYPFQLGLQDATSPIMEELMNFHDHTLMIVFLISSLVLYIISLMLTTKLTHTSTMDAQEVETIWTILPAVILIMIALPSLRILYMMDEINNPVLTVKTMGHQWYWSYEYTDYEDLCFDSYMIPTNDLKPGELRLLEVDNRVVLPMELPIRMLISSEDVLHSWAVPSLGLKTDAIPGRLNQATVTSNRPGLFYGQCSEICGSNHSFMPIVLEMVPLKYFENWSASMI
Sequence of Timm17b_IPI:IPI00129504.1 (mouse) (Q9Z0V7 whole entry): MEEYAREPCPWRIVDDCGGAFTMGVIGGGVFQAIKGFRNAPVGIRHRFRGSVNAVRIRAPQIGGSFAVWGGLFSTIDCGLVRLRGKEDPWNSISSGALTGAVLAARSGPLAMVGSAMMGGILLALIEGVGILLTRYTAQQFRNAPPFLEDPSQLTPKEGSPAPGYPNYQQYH
Sequence of GST-Httex1-23Q (P08515 1-218, tags or fused parts left off): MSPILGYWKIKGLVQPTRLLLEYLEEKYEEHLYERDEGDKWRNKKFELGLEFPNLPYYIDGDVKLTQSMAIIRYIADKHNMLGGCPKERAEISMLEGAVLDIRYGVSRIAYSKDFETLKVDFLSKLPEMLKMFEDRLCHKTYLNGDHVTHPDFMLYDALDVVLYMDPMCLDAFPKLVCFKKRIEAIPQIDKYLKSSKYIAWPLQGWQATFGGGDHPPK
Sequence of Ndufb5_IPI:IPI00132531.1 (mouse) (Q9CQH3 47-189 limits assumed): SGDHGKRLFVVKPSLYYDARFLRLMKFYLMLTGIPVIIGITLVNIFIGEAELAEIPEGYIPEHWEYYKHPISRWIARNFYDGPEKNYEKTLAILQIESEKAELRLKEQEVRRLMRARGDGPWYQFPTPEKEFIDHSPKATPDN
Sequence of Hspa9_IPI:IPI00880839.1 (mouse) (P38647 47-679 limits assumed): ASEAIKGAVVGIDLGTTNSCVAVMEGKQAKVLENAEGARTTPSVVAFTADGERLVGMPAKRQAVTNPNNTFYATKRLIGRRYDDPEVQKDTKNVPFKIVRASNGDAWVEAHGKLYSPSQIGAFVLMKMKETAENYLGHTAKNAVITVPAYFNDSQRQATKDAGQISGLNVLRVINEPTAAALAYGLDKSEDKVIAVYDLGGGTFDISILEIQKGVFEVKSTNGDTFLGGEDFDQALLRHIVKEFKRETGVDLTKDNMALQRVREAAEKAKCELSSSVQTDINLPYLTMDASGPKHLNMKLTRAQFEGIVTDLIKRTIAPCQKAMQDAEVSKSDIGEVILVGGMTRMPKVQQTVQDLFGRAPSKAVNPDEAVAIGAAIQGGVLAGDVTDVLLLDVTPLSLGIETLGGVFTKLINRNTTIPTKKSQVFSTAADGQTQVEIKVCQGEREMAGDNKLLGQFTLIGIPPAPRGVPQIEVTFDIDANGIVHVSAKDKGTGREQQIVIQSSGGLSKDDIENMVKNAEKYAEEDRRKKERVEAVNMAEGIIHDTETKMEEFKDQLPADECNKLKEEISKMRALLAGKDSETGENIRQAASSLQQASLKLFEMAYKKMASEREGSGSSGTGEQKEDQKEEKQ
Sequence of Slc25a1_IPI:IPI00276926.3 (mouse) (Q8JZU2 14-311 limits assumed): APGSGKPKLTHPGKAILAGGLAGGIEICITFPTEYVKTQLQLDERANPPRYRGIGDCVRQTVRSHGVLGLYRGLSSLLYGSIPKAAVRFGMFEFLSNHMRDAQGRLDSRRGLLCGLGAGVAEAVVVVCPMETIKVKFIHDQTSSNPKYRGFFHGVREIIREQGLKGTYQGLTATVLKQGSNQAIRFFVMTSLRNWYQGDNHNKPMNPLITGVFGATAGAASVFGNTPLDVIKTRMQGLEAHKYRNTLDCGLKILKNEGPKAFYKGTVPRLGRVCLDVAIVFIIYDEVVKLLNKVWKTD
Sequence of Tuba4a_IPI:IPI00117350.1 (mouse) (P68368 whole entry): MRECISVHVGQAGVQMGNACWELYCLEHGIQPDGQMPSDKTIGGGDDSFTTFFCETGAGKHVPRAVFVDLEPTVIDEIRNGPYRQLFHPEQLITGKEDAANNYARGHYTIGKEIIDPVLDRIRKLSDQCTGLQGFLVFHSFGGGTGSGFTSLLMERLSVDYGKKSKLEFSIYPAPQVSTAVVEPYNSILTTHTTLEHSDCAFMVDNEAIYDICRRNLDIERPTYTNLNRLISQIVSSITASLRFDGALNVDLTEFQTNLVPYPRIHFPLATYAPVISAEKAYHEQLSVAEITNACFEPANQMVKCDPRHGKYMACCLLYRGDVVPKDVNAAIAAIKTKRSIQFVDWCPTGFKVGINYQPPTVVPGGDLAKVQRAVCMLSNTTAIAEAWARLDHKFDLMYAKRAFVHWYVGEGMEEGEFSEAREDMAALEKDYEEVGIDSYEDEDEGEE

Substance: GST-Httex1-23Q (from UniProt P08515 1-218; P42858 1-88)
- No. of total peptides [1]: 3 peptides
- No. of unique peptides [1]: 3 peptides
- No. of total peptides [2]: 1 peptides
- No. of unique peptides [2]: 1 peptides
- No. of total peptides [3]: 2 peptides
- No. of unique peptides [3]: 2 peptides
- No. of total peptides [4]: 3 peptides
- No. of unique peptides [4]: 3 peptides
- No. of total peptides [5]: 1 peptides
- No. of unique peptides [5]: 1 peptides
- No. of total peptides [6]: 6 peptides
- No. of unique peptides [6]: 3 peptides
- No. of total peptides [7]: 1 peptides
- No. of unique peptides [7]: 1 peptides
- No. of total peptides [8]: 1 peptides
- No. of unique peptides [8]: 1 peptides
- No. of total peptides [9]: 1 peptides
- No. of unique peptides [9]: 1 peptides
- No. of total peptides [10]: 2 peptides
- No. of unique peptides [10]: 2 peptides
- No. of total peptides [11]: 2 peptides
- No. of unique peptides [11]: 2 peptides
- No. of total peptides [12]: 1 peptides
- No. of unique peptides [12]: 1 peptides
- No. of total peptides [13]: 1 peptides
- No. of unique peptides [13]: 1 peptides
- No. of total peptides [14]: 1 peptides
- No. of unique peptides [14]: 1 peptides
- No. of total peptides [15]: 2 peptides
- No. of unique peptides [15]: 2 peptides

Substance: GST-Httex1-97Q (from UniProt P08515 1-218; P42858 1-88)
- No. of total peptides [1]: 2 peptides
- No. of unique peptides [1]: 2 peptides
- No. of total peptides [2]: 2 peptides
- No. of unique peptides [2]: 2 peptides
- No. of total peptides [3]: 5 peptides
- No. of unique peptides [3]: 3 peptides
- No. of total peptides [4]: 1 peptides
- No. of unique peptides [4]: 1 peptides
- No. of total peptides [5]: 2 peptides
- No. of unique peptides [5]: 2 peptides
- No. of total peptides [6]: 3 peptides
- No. of unique peptides [6]: 2 peptides
- No. of total peptides [7]: 2 peptides
- No. of unique peptides [7]: 2 peptides
- No. of total peptides [8]: 1 peptides
- No. of unique peptides [8]: 1 peptides
- No. of total peptides [9]: 1 peptides
- No. of unique peptides [9]: 1 peptides
- No. of total peptides [10]: 5 peptides
- No. of unique peptides [10]: 5 peptides
- No. of total peptides [11]: 3 peptides
- No. of unique peptides [11]: 3 peptides
- No. of total peptides [12]: 1 peptides
- No. of unique peptides [12]: 1 peptides
- No. of total peptides [13]: 1 peptides
- No. of unique peptides [13]: 1 peptides
- No. of total peptides [14]: 4 peptides
- No. of unique peptides [14]: 3 peptides
- No. of total peptides [15]: 2 peptides
- No. of unique peptides [15]: 2 peptides
